# Experimental data reported in the Immune Epitope Database (IEDB).
# pKd: −log10 of the molar value.
# Key:
# HLA-A*02:01 [1] = experiment: IEDB peptide-MHC binding, purified MHC/competitive/fluorescence; filed as Kd, often an IC50 or EC50 that approximates it; ≥ and ≤ were set here for values at or beyond the usual limits of such assays
# HLA-B*18:01 = experiment: as above
# HLA-B*51:01 = experiment: as above
# HLA-B*39:01 = experiment: as above
# HLA-B*46:01 = experiment: as above
# HLA-B*27:03 = experiment: as above
# HLA-B*57:01 = experiment: as above
# HLA-A*69:01 [2] = experiment: as above
# HLA-A*26:01 [3] = experiment: as above
# HLA-A*68:02 = experiment: IEDB peptide-MHC binding, purified MHC/direct/fluorescence; filed as Kd, often an IC50 or EC50 that approximates it; ≥ and ≤ were set here for values at or beyond the usual limits of such assays; conditions: source organism: Choclo virus
# HLA-A*02:16 = experiment: as above; conditions: source organism: Choclo virus
# HLA-A*02:19 = experiment: as above; conditions: source organism: Choclo virus
# HLA-A*23:01 [4] = experiment: as above; conditions: source organism: Choclo virus
# HLA-A*24:03 [5] = experiment: as above
# HLA-A*02:03 = experiment: as above; conditions: source organism: Choclo virus
# HLA-A*01:01 = experiment: as above
# HLA-A*02:11 = experiment: as above; conditions: source organism: Choclo virus
# HLA-A*02:12 = experiment: as above; conditions: source organism: Choclo virus
# HLA-B*35:01 = experiment: as above
# HLA-B*40:01 = experiment: as above
# HLA-B*27:05 = experiment: as above
# HLA-A*24:02 = experiment: as above; conditions: source organism: Influenza A virus (A/tiger/Thailand/CU-T4/04(H5N1))
# HLA-B*08:02 = experiment: as above; conditions: source organism: Influenza A virus(A/swine/Shandong/fZC/2003(H9N2))
# HLA-A*02:01 [6] = experiment: as above
# HLA-B*08:01 = experiment: as above
# HLA-B*58:01 = experiment: as above
# HLA-A*11:01 = experiment: as above
# HLA-A*69:01 [7] = experiment: as above
# HLA-B*15:01 [8] = experiment: as above
# HLA-A*03:01 [9] = experiment: as above
# HLA-B*07:02 = experiment: as above
# HLA-A*31:01 = experiment: as above
# HLA-A*30:01 = experiment: as above; conditions: source organism: Yersinia enterocolitica
# HLA-C*14:02 = experiment: as above; conditions: source organism: Yersinia enterocolitica
# HLA-A*26:01 [10] = experiment: as above
# HLA-B*44:02 = experiment: as above; conditions: source organism: Yersinia enterocolitica
# HLA-A*23:01 [11] = experiment: IEDB peptide-MHC binding, purified MHC/competitive/fluorescence; filed as Kd, often an IC50 or EC50 that approximates it; ≥ and ≤ were set here for values at or beyond the usual limits of such assays; conditions: source organism: Streptococcus pneumoniae TIGR4
# HLA-A*24:03 [12] = experiment: as above; conditions: source organism: Streptococcus pneumoniae TIGR4
# HLA-B*15:17 = experiment: as above; conditions: source organism: Streptococcus pneumoniae TIGR4
# HLA-A*29:02 = experiment: as above; conditions: source organism: Streptococcus pneumoniae TIGR4
# HLA-B*15:01 [13] = experiment: as above; conditions: source organism: Streptococcus pneumoniae TIGR4
# HLA-A*03:01 [14] = experiment: as above; conditions: source organism: Streptococcus pneumoniae TIGR4
# [15] = source organism: Influenza A virus (A/tiger/Thailand/CU-T4/04(H5N1))
# [16] = source organism: Influenza A virus (A/Puerto Rico/8/34/Mount Sinai(H1N1))
# [17] = source organism: Yersinia enterocolitica
# [18] = source organism: Haemophilus influenzae
# [19] = source organism: Escherichia coli
# [20] = source organism: Streptococcus pneumoniae TIGR4
sequence,measurement,setting,value
KACDLAMCY,pKd,HLA-A*02:01 [1]; source organism: Choclo virus,≤ 4.70
same,pKd,HLA-B*18:01; source organism: Choclo virus,≤ 4.70
same,pKd,HLA-B*51:01; source organism: Choclo virus,≤ 4.70
same,pKd,HLA-B*39:01; source organism: Choclo virus,≤ 4.70
same,pKd,HLA-B*46:01; source organism: Choclo virus,≤ 4.70
same,pKd,HLA-B*27:03; source organism: Choclo virus,≤ 4.70
same,pKd,HLA-B*57:01; source organism: Choclo virus,≤ 4.70
same,pKd,HLA-A*69:01 [2]; source organism: Choclo virus,≤ 4.70
same,pKd,HLA-A*26:01 [3]; source organism: Choclo virus,≤ 4.70
same,pKd,HLA-A*68:02,≤ 4.70
same,pKd,HLA-A*02:16,≤ 4.70
same,pKd,HLA-A*02:19,≤ 4.70
same,pKd,HLA-A*23:01 [4],≤ 4.70
same,pKd,HLA-A*24:03 [5]; source organism: Choclo virus,≤ 4.70
same,pKd,HLA-A*02:03,≤ 4.70
same,pKd,HLA-A*01:01; source organism: Pergamino virus,5.48
same,pKd,HLA-A*02:11,≤ 4.70
same,pKd,HLA-A*02:12,≤ 4.70
FVRTLFQQM,pKd,HLA-B*46:01; source organism: Influenza A virus H3N2,≤ 4.70
same,pKd,HLA-B*35:01; source organism: Influenza A virus(A/swine/Shandong/fZC/2003(H9N2)),6.53
same,pKd,HLA-B*40:01; [15],≤ 4.70
same,pKd,HLA-B*27:05; [15],≤ 4.70
same,pKd,HLA-A*24:02,≤ 4.70
same,pKd,HLA-B*08:02,≤ 4.70
same,pKd,HLA-A*02:01 [6]; [15],≤ 4.70
same,pKd,HLA-B*08:01; [16],6.73
same,pKd,HLA-B*58:01; [15],≤ 4.70
same,pKd,HLA-A*11:01; [15],≤ 4.70
same,pKd,HLA-A*01:01; [15],≤ 4.70
same,pKd,HLA-A*69:01 [7]; [15],≤ 4.70
same,pKd,HLA-B*15:01 [8]; [16],5.22
same,pKd,HLA-A*03:01 [9]; [15],≤ 4.70
same,pKd,HLA-B*07:02; [16],6.30
YIFRNTINM,pKd,HLA-B*35:01; [17],7.08
same,pKd,HLA-A*31:01; [17],≤ 4.70
same,pKd,HLA-B*40:01; [17],≤ 4.70
same,pKd,HLA-A*30:01,5.75
same,pKd,HLA-B*27:05; [17],≤ 4.70
same,pKd,HLA-A*02:01 [6]; [17],6.65
same,pKd,HLA-C*14:02,6.92
same,pKd,HLA-B*08:01; [17],≤ 4.70
same,pKd,HLA-B*58:01; [17],6.29
same,pKd,HLA-A*11:01; [17],5.11
same,pKd,HLA-A*01:01; [17],≤ 4.70
same,pKd,HLA-A*69:01 [7]; [17],6.70
same,pKd,HLA-A*26:01 [10]; [17],6.14
same,pKd,HLA-B*44:02,≤ 4.70
same,pKd,HLA-B*15:01 [8]; [17],6.53
same,pKd,HLA-A*03:01 [9]; [17],≤ 4.70
same,pKd,HLA-B*07:02; [17],5.10
LAEQFSGEY,pKd,HLA-B*35:01; [18],7.78
same,pKd,HLA-A*31:01; [18],≤ 4.70
same,pKd,HLA-B*40:01; [18],≤ 4.70
same,pKd,HLA-B*27:05; [18],≤ 4.70
same,pKd,HLA-A*02:01 [6]; [18],≤ 4.70
same,pKd,HLA-A*24:03 [5]; [18],≤ 4.70
same,pKd,HLA-B*08:01; [18],≤ 4.70
same,pKd,HLA-B*58:01; [18],≤ 4.70
same,pKd,HLA-A*11:01; [18],≤ 4.70
same,pKd,HLA-A*01:01; [18],6.61
same,pKd,HLA-A*69:01 [7]; [18],≤ 4.70
same,pKd,HLA-A*26:01 [10]; [18],≤ 4.70
same,pKd,HLA-B*15:01 [8]; [18],6.43
same,pKd,HLA-A*03:01 [9]; [18],≤ 4.70
same,pKd,HLA-B*07:02; [18],≤ 4.70
SHDTIGPYY,pKd,HLA-B*35:01; [19],5.32
same,pKd,HLA-A*31:01; [19],≤ 4.70
same,pKd,HLA-B*40:01; [19],5.53
same,pKd,HLA-B*27:05; [19],≤ 4.70
same,pKd,HLA-A*02:01 [6]; [19],≤ 4.70
same,pKd,HLA-B*08:01; [19],≤ 4.70
same,pKd,HLA-B*58:01; [19],≤ 4.70
same,pKd,HLA-A*11:01; [19],≤ 4.70
same,pKd,HLA-A*01:01; [19],≤ 4.70
same,pKd,HLA-A*69:01 [7]; [19],≤ 4.70
same,pKd,HLA-A*26:01 [10]; [19],≤ 4.70
same,pKd,HLA-B*15:01 [8]; [19],≤ 4.70
same,pKd,HLA-A*03:01 [9]; [19],≤ 4.70
same,pKd,HLA-B*07:02; [19],≤ 4.70
CLSDEINHV,pKd,HLA-A*02:01 [1]; [20],7.96
same,pKd,HLA-B*18:01; [20],≤ 4.70
same,pKd,HLA-A*23:01 [11],≤ 4.70
same,pKd,HLA-A*24:03 [12],≤ 4.70
same,pKd,HLA-B*51:01; [20],≤ 4.70
same,pKd,HLA-B*39:01; [20],≤ 4.70
same,pKd,HLA-B*46:01; [20],≤ 4.70
same,pKd,HLA-B*27:03; [20],≤ 4.70
same,pKd,HLA-B*15:17,≤ 4.70
same,pKd,HLA-B*57:01; [20],≤ 4.70
same,pKd,HLA-A*69:01 [2]; [20],≤ 4.70
same,pKd,HLA-A*29:02,≤ 4.70
same,pKd,HLA-A*26:01 [3]; [20],≤ 4.70
same,pKd,HLA-B*15:01 [13],≤ 4.70
same,pKd,HLA-A*03:01 [14],≤ 4.70
